Data reported in PMC8053085, “Di-phosphorylated BAF shows altered structural dynamics and binding to DNA, but interacts with its nuclear envelope partners” (Nucleic Acids Research, 2021).
“And” between values parts separate entries of the source, which are not always exact repeats. Identical values can stand only once. Values belong to the molecule of their own block, whether it stands above or below them.

B2: Barrier-to-autointegration factor (BAF construct with the four cysteines replaced by alanines) (natural protein, human, UniProt O75531 1-89, looked up)
chain: GTTSQKHRDFVAEPMGEKPVGSLAGIGEVLGKKLEERGFDKAYVVLGQFLVLKKDEDLFREWLKDTAGANAKQSRDAFGALREWADAFL
notes: human barrier-to-autointegration factor (BANF1), an 89-aa protein; residue 1 is a glycine left by the TEV site instead of the native methionine; all four cysteines mutated into alanine; also called BAF WT; non-phosphorylated BAF; not shown: His tag, N-terminal, cleaved
B3: Di-phosphorylated BAF (BAF phosphorylated by VRK1 on Thr3 and Ser4) (natural protein, human, UniProt O75531 1-89, looked up)
chain: GTTSQKHRDFVAEPMGEKPVGSLAGIGEVLGKKLEERGFDKAYVVLGQFLVLKKDEDLFREWLKDTAGANAKQSRDAFGALREWADAFL
modifications: phosphothreonine at 3, phosphoserine at 4
notes: human barrier-to-autointegration factor (BANF1), an 89-aa protein; residue 1 is a glycine left by the TEV site instead of the native methionine; all four cysteines mutated into alanine; phosphorylated on Thr3 and Ser4; Same construct as m1, then phosphorylated; also called pBAF; not shown: His tag, N-terminal, cleaved

Tests used:
BAF A12T (human) [1] = assay: ITC; conditions: ITC: 50 mM Tris-HCl pH 8.0, 150 mM NaCl, 15 C, 20 uM BAF in cell, DNA 200 uM (7/21 nt) or 100 uM (48 nt) in syringe; fluorescence assay buffer not given in the …
[2] = tested on: BAF WT (Cys-less construct) (human); assay: ITC; conditions: ITC: 50 mM Tris-HCl pH 8.0, 150 mM NaCl, 15 C, 20 uM BAF in cell, DNA 200 uM (7/21 nt) or 100 uM (48 nt) in syringe; fluorescence assay buffer not given in the …
BAF A12T (human) [3] = assay: fluorescence, dye-labelled coated dsDNA; conditions: mean of 4; ITC: 50 mM Tris-HCl pH 8.0, 150 mM NaCl, 15 C, 20 uM BAF in cell, DNA 200 uM (7/21 nt) or 100 uM (48 nt) in syringe; fluorescence assay buffer not given in the …
BAF S4E (human) = assay: fluorescence, dye-labelled coated dsDNA; conditions: mean of 2; ITC: 50 mM Tris-HCl pH 8.0, 150 mM NaCl, 15 C, 20 uM BAF in cell, DNA 200 uM (7/21 nt) or 100 uM (48 nt) in syringe; fluorescence assay buffer not given in the …
[4] = tested on: BAF WT (Cys-less construct) (human); assay: fluorescence, dye-labelled coated dsDNA; conditions: mean of 5; ITC: 50 mM Tris-HCl pH 8.0, 150 mM NaCl, 15 C, 20 uM BAF in cell, DNA 200 uM (7/21 nt) or 100 uM (48 nt) in syringe; fluorescence assay buffer not given in the …
[5] = tested on: pBAF (pThr3, pSer4) (human); assay: fluorescence, dye-labelled coated dsDNA; conditions: mean of 2; ITC: 50 mM Tris-HCl pH 8.0, 150 mM NaCl, 15 C, 20 uM BAF in cell, DNA 200 uM (7/21 nt) or 100 uM (48 nt) in syringe; fluorescence assay buffer not given in the …
[6] = biological target: T1, Barrier-to-autointegration factor (BAF construct with the four cysteines replaced by alanines) (human, UniProt O75531 1-89, glycine as residue 1 instead of the native methionine | C67 mutated into …); assay: ITC
T1 sequence: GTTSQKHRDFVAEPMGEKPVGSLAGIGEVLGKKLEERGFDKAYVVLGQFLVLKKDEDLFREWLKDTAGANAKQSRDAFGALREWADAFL

[7] = biological target: T2, Di-phosphorylated BAF (BAF phosphorylated by VRK1 on Thr3 and Ser4) (human, UniProt O75531 1-89, glycine as residue 1 instead of the native methionine | C67 mutated into …, phosphothreonine at 3, phosphoserine at 4); assay: ITC; phosphorylated BAF (pThr3, pSer4)
T2 sequence: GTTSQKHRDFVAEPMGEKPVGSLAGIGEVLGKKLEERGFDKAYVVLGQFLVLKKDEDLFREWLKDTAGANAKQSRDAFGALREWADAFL

[8] = biological target: B2; assay: ITC; VP-ITC, 15°C; BAF or pBAF dimers at 20 μM in the cell titrated with LamIgF at 100 μM or LEM at 150 μM in the syringe; 50 mM HEPES pH 7.4, 150 mM NaCl; in duplicate; conditions: both partners purified
[9] = biological target: B3; assay: as above; conditions: both partners purified
[10] = biological target: T3, IgFold domain of human lamin A/C from amino acid 411 to amino acid 566 (human, UniProt P02545 411-566); assay: as above; conditions: both partners purified
T3 construct: human lamin A/C, residues 411-566 including the IgFold domain; Cloned into a pGEX vector; also called LamIgF; lamin A/C Igfold domain; source: E. coli BL21 DE3 Star, purified (glutathione beads, thrombin cleavage, gel filtration); 15N labelled for NMR
T3 sequence (looked up): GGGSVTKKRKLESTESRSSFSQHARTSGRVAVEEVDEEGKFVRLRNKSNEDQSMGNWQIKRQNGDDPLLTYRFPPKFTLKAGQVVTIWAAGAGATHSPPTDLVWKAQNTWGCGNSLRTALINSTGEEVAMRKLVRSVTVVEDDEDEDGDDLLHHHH

Molecule: 7 nt dsDNA
Kd (BAF A12T (human) [1]): 1700 nM and 920 nM | Kd [2]: 1000 nM and 2100 nM

Molecule: 21 nt dsDNA
Kd (BAF A12T (human) [1]): 300 nM and 210 nM | Kd [2]: 170 nM and 110 nM

Molecule: 48 nt dsDNA (ITC)
Kd (BAF A12T (human) [1]): 28.8 nM | Kd [2]: 41.1 nM

Molecule: 48 nt dsDNA, coated
Kd (BAF A12T (human) [3]): 2.5 nM | Kd (BAF S4E (human)): 15000 nM | Kd [4]: 2.54 nM | Kd [5]: 10700 nM

Kd [6]: 1100 nM | Kd [7]: 700 nM | Kd [8]: ~1000 nM | Kd [9]: ~1000 nM
B1: LEM domain of human emerin from amino acid 1 to amino acid 46 (domain or fragment, UniProt P50402 1-46, looked up)
chain: MDNYADLSDTELTTLLRRYNIPHGPVVGSTRRLYEKKIFEYETQRR
notes: human emerin, residues 1-46 (LEM domain); also called emerin LEM domain; LEM fragment

Molecule: B2
Kd [10]: 4500 ± 500 nM

Molecule: B3
Kd [10]: 4900 ± 800 nM
